Results taken from the supplement of paper PMC9732359.
± gives the uncertainty stated by the source.

Experiment: protein stability index of a GFP-peptide fusion (yeast GPS) (PSI 1-4); higher = more stable; sorted into four equal gates, so the index is relative within each strain
Procedure, shortened: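 Plasmids in a pooled yeast library fused tiled 17-residue yeast protein peptides downstream of GFP and also expressed Cherry. Mid-log cultures grown without leucine were sorted into four equal gates by GFP/Cherry fluorescence ratio. Each gate's plasmids were PCR-amplified and Illumina-sequenced, and reads were matched to strains by barcodes. The protein stability index is derived by multiplying each gate's read frequency by its gate number and summing the results.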

Sequence	protein stability index (doa10∆)	protein stability index (pdr5∆)	protein stability index (san1∆)	protein stability index (ubr1∆)
ILNSHFDALRSLDDNST [YJL041W/NSP1]	2.36 ± 0.054	2.07 ± 0.046	2.53 ± 0.064	2.55 ± 0.036
KCSATNRIIKADDHASV [RPS21A]	2.92 ± 0.053	2.96 ± 0.053	3.13 ± 0.049	3.11 ± 0.039
THPHAADGSSYMEQGNN [SKI6]	3.05 ± 0.073	3.2 ± 0.063	3.02 ± 0.052	3.07 ± 0.047
DLQRLKPLGLDRYGNRY [ITC1]				3.05 ± 0.13
VQSKARYTVRTFGIRRN [RPL11A]	1.78 ± 0.083	1.86 ± 0.073	1.35 ± 0.11	1.53 ± 0.086
EASKKSAVKPRPLKLER [FAS1]	3.1 ± 0.15	3.16 ± 0.13	2.88 ± 0.17	3.05 ± 0.11
LLKEEKIIELMNKIFTI [YML103C/NUP188]	2.81 ± 0.088	1.57 ± 0.097	1.26 ± 0.15	1.79 ± 0.25
SPQAVSSFVRQELAKSI [PRE1]	2.33 ± 0.11	2.33 ± 0.072	2.1 ± 0.19	2.31 ± 0.059
NNTNNNNTNTGASGVDD [SWI1]	2.75 ± 0.073	2.95 ± 0.065	3.05 ± 0.072	3.3 ± 0.048
QHTTESDNISRKYEISF [RPB2]	3.16 ± 0.11	3.17 ± 0.088	2.92 ± 0.098	3.2 ± 0.11
SKLSLSRTDAVRCKDCG [RPC10]	1.77 ± 0.076	1.9 ± 0.064	1.85 ± 0.13	1.9 ± 0.076
AGTKITICIELKTVLHN [RGR1]	1.18 ± 0.062	1.32 ± 0.07	1.39 ± 0.13	1.49 ± 0.09
PAELEGLLDLERVIVVT [FAS2]	2.38 ± 0.1	2.11 ± 0.064	1.78 ± 0.17	1.77 ± 0.11
TSPEKKDGGDKPPSSAF [YAR002W/NUP60]	3.42 ± 0.13	3.34 ± 0.075	3.3 ± 0.081	3.72 ± 0.11
KLIKFETRNEDDVVVLT [FAS1]	3.32 ± 0.17	2.93 ± 0.13	3.07 ± 0.063	3.12 ± 0.16
KSYYLNTVMLQGIFKNS [AAR2]	1.34 ± 0.069	1.26 ± 0.076	2.14 ± 0.14	1.24 ± 0.054
SLQDLIYKRGQAGVTKA [SMC2]	1.58 ± 0.15	1.94 ± 0.094	1.85 ± 0.15	2.3 ± 0.079
LRRIITDLNQDSAAIIA [GRR1]	2.64 ± 0.075	2.31 ± 0.068	2.6 ± 0.064	2.55 ± 0.053
LLNHGERAELETDEYIS [RPN1]	1.55 ± 0.16	1.87 ± 0.083	3.08 ± 0.11	2.66 ± 0.11
ILDAICFVLGIASMSTV [SMC2]	1.45 ± 0.046	1.77 ± 0.054	1.78 ± 0.067	1.67 ± 0.06
LISIHSRENNSEYMVFG [YJL039C/NUP192]	3.03 ± 0.11	2.25 ± 0.13	2.77 ± 0.1	3.15 ± 0.19
STSKFESQYPIVTEQPS [SWP82]	2.41 ± 0.041	2.58 ± 0.046	2.41 ± 0.054	2.5 ± 0.04
NVPGVETANVASLNLLQ [RPL4A]	2.71 ± 0.053	3.05 ± 0.055	2.86 ± 0.044	2.87 ± 0.041
IPVGDNTVVGISGDISD [PRE4]	2.98 ± 0.13	3.12 ± 0.12	2.85 ± 0.16	3.02 ± 0.12
VVIDAKDHLLGRLASTI [RPL16B]	1.33 ± 0.066	1.25 ± 0.07	1.17 ± 0.12	1.35 ± 0.078
NTQLHGPSATDPETTAT [RGR1]	3.01 ± 0.094	2.89 ± 0.088	2.65 ± 0.073	2.81 ± 0.068
PLKRAIWLIKCCYFIEW [SRB8]	2.56 ± 0.1	2.12 ± 0.074	2.85 ± 0.097	2.77 ± 0.071
